# Laboratory results: IntAct's records for PubMed 31515488
# B1: Endoplasmic reticulum resident protein 27 (Homo sapiens), Q96DN0 (parent)
# chain: MEAAPSRFMFLLFLLTCELAAEVAAEVEKSSDGPGAAQEPTWLTDVPAAMEFIAATEVAVIGFFQDLEIPAVPILHSMVQKFPGVSFGISTDSEVLTHYNITGNTICLFRLVDNEQLNLEDEDIESIDATKLSRFIEINSLHMVTEYNPVTVIGLFNSVIQIHLLLIMNKASPEYEENMHRYQKAAKLFQGKILFILVDSGMKENGKVISFFKLKESQLPALAIYQTLDDEWDTLPTAEVSVEHVQNFCDGFLSGKLLKENRESEGKTPKVEL
# B2: MIF4G domain-containing protein (Homo sapiens), A9UHW6 (parent)
# chain: MGEPSREEYKIQSFDAETQQLLKTALKDPGAVDLEKVANVIVDHSLQDCVFSKEAGRMCYAIIQAESKQAGQSVFRRGLLNRLQQEYQAREQLRARSLQGWVCYVTFICNIFDYLRVNNMPMMALVNPVYDCLFRLAQPDSLSKEEEVDCLVLQLHRVGEQLEKMNGQRMDELFVLIRDGFLLPTGLSSLAQLLLLEIIEFRAAGWKTTPAAHKYYYSEVSD
# partner: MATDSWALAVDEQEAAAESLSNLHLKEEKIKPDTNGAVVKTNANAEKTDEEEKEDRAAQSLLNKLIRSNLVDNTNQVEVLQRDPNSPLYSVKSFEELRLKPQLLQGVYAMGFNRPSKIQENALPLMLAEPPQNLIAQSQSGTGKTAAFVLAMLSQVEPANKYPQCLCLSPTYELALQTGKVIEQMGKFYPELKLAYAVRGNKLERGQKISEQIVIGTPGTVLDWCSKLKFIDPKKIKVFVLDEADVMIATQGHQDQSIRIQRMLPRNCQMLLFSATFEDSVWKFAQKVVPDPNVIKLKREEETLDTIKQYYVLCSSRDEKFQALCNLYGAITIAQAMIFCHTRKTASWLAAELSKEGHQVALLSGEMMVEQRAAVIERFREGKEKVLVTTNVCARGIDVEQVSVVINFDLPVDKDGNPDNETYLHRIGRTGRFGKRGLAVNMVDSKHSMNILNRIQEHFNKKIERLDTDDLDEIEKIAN
# B3: U6 snRNA-associated Sm-like protein LSm7 (Homo sapiens), Q9UK45 (parent)
# chain: MADKEKKKKESILDLSKYIDKTIRVKFQGGREASGILKGFDPLLNLVLDGTIEYMRDPDDQYKLTEDTRQLGLVVCRGTSVVLICPQDGMEAIPNPFIQQQDA
# B4: Isoform 1 of Equilibrative nucleoside transporter 1 (Homo sapiens), Q99808-1 (parent)
# chain: MTTSHQPQDRYKAVWLIFFMLGLGTLLPWNFFMTATQYFTNRLDMSQNVSLVTAELSKDAQASAAPAAPLPERNSLSAIFNNVMTLCAMLPLLLFTYLNSFLHQRIPQSVRILGSLVAILLVFLITAILVKVQLDALPFFVITMIKIVLINSFGAILQGSLFGLAGLLPASYTAPIMSGQGLAGFFASVAMICAIASGSELSESAFGYFITACAVIILTIICYLGLPRLEFYRYYQQLKLEGPGEQETKLDLISKGEEPRAGKEESGVSVSNSQPTNESHSIKAILKNISVLAFSVCFIFTITIGMFPAVTVEVKSSIAGSSTWERYFIPVSCFLTFNIFDWLGRSLTAVFMWPGKDSRWLPSLVLARLVFVPLLLLCNIKPRRYLTVVFEHDAWFIFFMAAFAFSNGYLASLCMCFGPKKVKPAEAETAGAIMAFFLCLGLALGAVFSFLFRAIV
# partner: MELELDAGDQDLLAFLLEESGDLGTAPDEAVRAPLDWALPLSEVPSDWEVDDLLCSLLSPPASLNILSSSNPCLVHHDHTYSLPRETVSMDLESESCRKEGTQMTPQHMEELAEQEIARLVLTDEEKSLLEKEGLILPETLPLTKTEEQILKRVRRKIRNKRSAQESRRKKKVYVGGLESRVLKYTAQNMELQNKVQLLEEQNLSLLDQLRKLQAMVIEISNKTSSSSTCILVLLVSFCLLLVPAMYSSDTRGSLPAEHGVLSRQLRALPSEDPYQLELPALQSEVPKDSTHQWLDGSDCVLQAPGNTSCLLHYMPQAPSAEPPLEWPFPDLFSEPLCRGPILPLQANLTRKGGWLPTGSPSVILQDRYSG
# B5: Mothers against decapentaplegic homolog 4 (Homo sapiens), Q13485 (parent)
# chain: MDNMSITNTPTSNDACLSIVHSLMCHRQGGESETFAKRAIESLVKKLKEKKDELDSLITAITTNGAHPSKCVTIQRTLDGRLQVAGRKGFPHVIYARLWRWPDLHKNELKHVKYCQYAFDLKCDSVCVNPYHYERVVSPGIDLSGLTLQSNAPSSMMVKDEYVHDFEGQPSLSTEGHSIQTIQHPPSNRASTETYSTPALLAPSESNATSTANFPNIPVASTSQPASILGGSHSEGLLQIASGPQPGQQQNGFTGQPATYHHNSTTTWTGSRTAPYTPNLPHHQNGHLQHHPPMPPHPGHYWPVHNELAFQPPISNHPAPEYWCSIAYFEMDVQVGETFKVPSSCPIVTVDGYVDPSGGDRFCLGQLSNVHRTEAIERARLHIGKGVQLECKGEGDVWVRCLSDHAVFVQSYYLDREAGRAPGDAVHKIYPSAYIKVFDLRQCHRQMQQQAATAQAAAAAQAAAVAGNIPGPGSVGGIAPAISLSAAAGIGVDDLRRLCILRMSFVKGWGPDYPRQSIKETPCWIEIHLHRALQLLDEVLHTMPIADPQPLD
# Variants of: B1
# Details: with ef1d_human EEF1D
row,Variant,effect of a mutation on the interaction
1,E122K,with no effect

# Variants of: B1
# Details: with ubql1_human UBQLN1, Q9UMX0
# Chain of ubql1_human UBQLN1, Q9UMX0 (Q9UMX0 whole entry): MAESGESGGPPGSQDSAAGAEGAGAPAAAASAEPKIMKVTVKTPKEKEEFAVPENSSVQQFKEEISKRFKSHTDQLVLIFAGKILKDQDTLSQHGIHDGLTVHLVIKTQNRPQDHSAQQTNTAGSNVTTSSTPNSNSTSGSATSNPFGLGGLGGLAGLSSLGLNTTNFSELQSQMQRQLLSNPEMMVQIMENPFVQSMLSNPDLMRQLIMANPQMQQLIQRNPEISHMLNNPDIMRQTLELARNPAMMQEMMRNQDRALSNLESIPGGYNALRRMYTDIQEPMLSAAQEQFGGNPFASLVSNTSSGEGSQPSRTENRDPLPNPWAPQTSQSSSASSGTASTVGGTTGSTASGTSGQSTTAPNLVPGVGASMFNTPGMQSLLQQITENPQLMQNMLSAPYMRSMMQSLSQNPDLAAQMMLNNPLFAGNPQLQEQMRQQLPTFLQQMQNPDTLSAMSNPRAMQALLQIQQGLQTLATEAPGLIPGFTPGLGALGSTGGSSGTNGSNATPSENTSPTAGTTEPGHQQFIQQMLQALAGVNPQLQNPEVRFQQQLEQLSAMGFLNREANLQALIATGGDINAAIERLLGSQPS
row,Variant,effect of a mutation on the interaction
1,E122K,with no effect

# Variants of: B1
# Details: with sgta_human SGTA
row,Variant,effect of a mutation on the interaction
1,E122K,with no effect

# Variants of: B2
# Details: with dd19b_human DDX19B
row,Variant,effect of a mutation on the interaction
1,E160K,with no effect

# Variants of: B3
# Details: with lsm5_human LSM5, Q9Y4Y9
# Chain of lsm5_human LSM5, Q9Y4Y9 (Q9Y4Y9 whole entry): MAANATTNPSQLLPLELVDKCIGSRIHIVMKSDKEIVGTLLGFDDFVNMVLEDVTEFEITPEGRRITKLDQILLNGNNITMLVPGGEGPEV
row,Variant,effect of a mutation on the interaction
1,G78A,with no effect

# Variants of: B4
# Details: with creb3_human CREB3, O43889
row,Variant,effect of a mutation on the interaction
1,A293T,with no effect

# Variants of: B5
# Details: with smad9_human SMAD9, O15198
# Chain of smad9_human SMAD9, O15198 (O15198 whole entry): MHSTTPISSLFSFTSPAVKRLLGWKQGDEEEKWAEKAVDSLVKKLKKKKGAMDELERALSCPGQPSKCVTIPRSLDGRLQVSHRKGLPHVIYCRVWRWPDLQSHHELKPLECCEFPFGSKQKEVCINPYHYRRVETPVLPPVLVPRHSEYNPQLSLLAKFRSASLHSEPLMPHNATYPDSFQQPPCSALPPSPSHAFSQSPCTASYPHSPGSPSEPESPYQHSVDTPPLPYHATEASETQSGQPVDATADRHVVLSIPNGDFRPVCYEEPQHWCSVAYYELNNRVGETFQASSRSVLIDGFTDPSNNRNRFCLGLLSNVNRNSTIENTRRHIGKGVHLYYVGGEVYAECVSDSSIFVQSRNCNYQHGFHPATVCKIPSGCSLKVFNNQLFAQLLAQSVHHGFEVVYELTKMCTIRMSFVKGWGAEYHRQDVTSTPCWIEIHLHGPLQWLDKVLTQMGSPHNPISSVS
row,Variant,effect of a mutation on the interaction
1,N13S,with no effect
2,C324R,disrupting interaction strength
3,E330K,disrupting interaction strength
4,V350D,disrupting interaction strength
5,G352R,disrupting interaction strength
6,Y353S,disrupting interaction strength
7,R361C,disrupting interaction strength
8,L533R,disrupting interaction strength

# Variants of: B5
# Details: with smad3_human SMAD3, P84022
# Chain of smad3_human SMAD3, P84022 (P84022 whole entry, looked up): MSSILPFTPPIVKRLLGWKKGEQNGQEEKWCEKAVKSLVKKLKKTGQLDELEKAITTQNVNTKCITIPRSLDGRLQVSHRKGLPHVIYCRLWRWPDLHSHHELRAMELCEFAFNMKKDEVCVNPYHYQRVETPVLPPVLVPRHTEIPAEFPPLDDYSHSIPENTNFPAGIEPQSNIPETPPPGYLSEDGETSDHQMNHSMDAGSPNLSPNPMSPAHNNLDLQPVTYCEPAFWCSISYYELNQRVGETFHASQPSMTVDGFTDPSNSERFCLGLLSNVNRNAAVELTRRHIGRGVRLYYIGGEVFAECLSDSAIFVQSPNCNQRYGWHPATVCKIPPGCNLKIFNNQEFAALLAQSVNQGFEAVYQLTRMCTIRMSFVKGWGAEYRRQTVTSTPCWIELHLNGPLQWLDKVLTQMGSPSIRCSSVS
row,Variant,effect of a mutation on the interaction
1,N13S,with no effect
2,C324R,disrupting interaction strength
3,E330K,disrupting interaction strength
4,V350D,disrupting interaction strength
5,G352R,disrupting interaction strength
6,Y353S,disrupting interaction strength
7,R361C,disrupting interaction strength
8,L533R,disrupting interaction strength
